Laboratory results as given in paper PMC7536395.

T1: endogenous mouse GIPR (mouse (endogenous in primary mouse adipocytes and Neuro-2a cells)) (UniProt Q0P543)
T1 sequence: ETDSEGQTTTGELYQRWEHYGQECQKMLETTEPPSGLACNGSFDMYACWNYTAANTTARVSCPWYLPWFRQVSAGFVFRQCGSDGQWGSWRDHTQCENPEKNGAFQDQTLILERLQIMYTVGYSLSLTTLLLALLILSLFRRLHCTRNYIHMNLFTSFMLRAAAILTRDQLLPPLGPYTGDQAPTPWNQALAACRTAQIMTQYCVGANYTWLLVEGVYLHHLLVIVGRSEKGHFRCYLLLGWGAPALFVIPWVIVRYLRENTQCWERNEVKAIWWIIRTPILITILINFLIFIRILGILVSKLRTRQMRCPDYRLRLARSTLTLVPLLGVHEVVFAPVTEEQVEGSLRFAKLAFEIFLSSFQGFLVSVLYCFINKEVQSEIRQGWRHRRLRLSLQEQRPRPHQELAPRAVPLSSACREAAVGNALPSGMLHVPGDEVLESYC

T2: endogenous rat GIPR in INS1 832/13 cells (rat (endogenous in INS1 832/13)) (UniProt P43219)
T2 sequence: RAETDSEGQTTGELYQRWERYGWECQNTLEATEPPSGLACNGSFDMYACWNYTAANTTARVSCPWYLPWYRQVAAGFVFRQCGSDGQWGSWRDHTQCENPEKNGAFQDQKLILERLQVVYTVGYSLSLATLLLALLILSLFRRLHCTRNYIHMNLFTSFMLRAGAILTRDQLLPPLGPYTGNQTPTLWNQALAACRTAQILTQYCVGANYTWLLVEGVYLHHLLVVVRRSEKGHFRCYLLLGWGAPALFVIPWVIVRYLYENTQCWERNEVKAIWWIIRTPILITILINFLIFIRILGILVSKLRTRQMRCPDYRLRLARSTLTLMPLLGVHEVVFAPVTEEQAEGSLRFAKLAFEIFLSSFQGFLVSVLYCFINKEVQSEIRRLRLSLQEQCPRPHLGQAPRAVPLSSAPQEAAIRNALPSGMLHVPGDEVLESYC


Columns and labels:
[1] = target: T1, endogenous mouse GIPR (mouse (endogenous in primary mouse adipocytes and Neuro-2a cells))
[2] = target: T1, endogenous mouse GIPR (mouse (endogenous in primary mouse adipocytes and Neuro-2a cells)); remark: listed apart in the source
[3] = target: T2, endogenous rat GIPR in INS1 832/13 cells (rat (endogenous in INS1 832/13))

| EC50 of cAMP production in mouse primary adipocytes differentiated in vitro [1] [nM] | EC50 of glycerol release (lipolysis) from primary mouse adipocytes differentiated in vitro [1] [nM] | EC50 of cAMP production in mouse Neuro-2a neuroblastoma cells [2] [nM] | EC50 of cAMP production in rat INS1 832/13 cells [3] [nM] | Binder |
| --- | --- | --- | --- | --- |
| 3.8 | 13 | 6.35 | – | YAEGTFISDYSIAMDKIRQQDFVNWLLAQRGKKSDWKHNITQ (ligand) [mouse GIP] |
| – | – | – | 0.99 | YAEGTFISDYSIAMDKIRQQDFVNWLLAQKGKKNDWKHNLTQ (ligand) [rat GIP] |
